For data set [1] the following is noted: mouse, in vivo, iv, 86.2 umol/kg.
Procedure: Time evolution of plasma concentration (A, B) and of cardiac tissue concentration (C, D) of Doxorubicin or PhAc-ALGP-Dox and its metabolites after i.v. bolus injection to OF-1 female wild type mice at the dose of 86.2 μmol/kg. Results represent the mean concentration±SD (n=3).
Pharmacokinetic tissue distribution studies were performed using OF-1 mice. […] At different time points after drug administration (5 min, 30 min, 1 h, 4 h, 7 h, 16 h and 24 h) 3 mice per group were sacrificed by cervical dislocation and blood and heart tissue were collected. Hearts were incised and rinsed carefully in phosphate buffer saline (to eliminate blood in the cardiac cavities), dried on paper and frozen in liquid nitrogen. They were stored until analysis. Blood samples were centrifuged (10 min, 2000 g, 4° C.) to separate the plasma fraction, which was stored for analysis. The hearts were homogenized with an Ultraturrax homogenizer in 1.5 mL water. The protein concentration was measured using the microBCA protein assay (Pierce). The drug tissue quantification was made by HPLC after extraction: 150 μL of acetonitrile was added to the 50 μL samples. Samples were vortexed and centrifuged for 10 min at 13 000 rpm at room temperature. Supernatant was collected. Samples were buffered by addition of 200 mM formiate buffer pH 4.5 (1 V sample supernatant+3 V buffer) before HPLC analysis (fluo detection ex=235 nm em=560 nm).
The nature of data set [2]: In vitro cytotoxicity on Cor.At cardiomyocytes (neutral red uptake). The format is cell-based, mouse. As to conditions: mouse, 20 μg/ml. Here is the method: FIG. 5. In vitro cellular toxicity of PhAc-ALGP-Dox and Doxorubicin on Cor.At® cells (mouse embryonic stem cell derived cardiomyocytes). As non-specific control, the test was also performed on inactivated mouse embryonic fibroblasts (MEF). Cells were cultured for 48 h in the presence of drugs and a neutral red uptake test was performed to determine cell viability. Results represent the cytotoxicity curves. The IC50 values were calculated from the cytotoxicity curves using the Prism GraphPad software 5.0.
The in vitro cardiotoxicity test was carried out in a relevant and predictive in vitro model for cardiac safety screening in early lead optimization using mouse embryonic stem cell derived cardiomyocytes (Cor.At®, Axiogenesis (Germany)). Cor.At® cardiomyocytes provide a standardized, homogenous and reproducible cell system for the in vitro classification of a compound's cardio-cytotoxic potential. After incubation with test compounds, the neutral red uptake test was used to determine effects which directly affect the viability and integrity of cardiac cells when compared to a non-specific reference cell type, e.g. mouse fibroblasts (MEF).

Data set [3] is classed as in vivo, CD1 mice. The text has this:
FIG. 13. Evaluation of chronic cardiotoxicity of PhAc-ALGP-Dox in CD-1 mice. Animals received 10 intravenous injections (arrows) of saline (●); Doxorubicin 6.9 μmol/kg (▪) or of PhAc-ALGP-Dox at 13.8 (▴), 27.6 (×), 55.2 (*) and 82.8 μmol/kg (◯). Results represent the evolution of the average relative body weight (%). †=dead mouse.
Chronic cardiac toxicity of PhAc-ALGP-Dox in mice was morphologically evaluated as previously described by Bertazzoli et al. 1979 (Cancer Treat Rep 63, 1877-1883). CD1 female white mice were treated by bolus intravenous injection in the tail vein at 10 μL/g (6 mice per group). Compounds were injected twice a week, ten times. Animals were not treated for 2 weeks between the first four injections and the last six injections to allow recovery of the bone marrow depression. The treatment dose-levels of PhAc-ALGP-Dox were: 13.8; 27.6; 55.2; and 82.8 μmol/kg. Doxorubicin 6.9 μmol/kg was used as a reference. Three weeks after the last injection, animals were deeply anaesthetized by intraperitoneal injection of nembutal (50 mg/kg) and exsanguinated. The hearts were carefully collected, rinsed in NaCl 9°/oo and fixed in a 10% formaldehyde solution. Samples were processed for histopathological analysis (CITox Lab, France). The heart was trimmed, embedded in paraffin wax, sectioned at a thickness of 4 microns and stained with hematoxylin-eosin before microscopic evaluation. During the course of the experiment, body weight was controlled before each injection or once a week.

Data set [4] can be described thus: Stability in citrated human plasma. As to conditions: 5 hours incubation at 37° C. in citrated human plasma (pH7), 50 μM. Here is the method: The drug conjugates (50 μM) were mixed with human plasma and incubated for 5 hours at 37° C. in a water bath. […] Supernatant was collected.
Data set [5] can be described thus: In vivo toxicity after single iv bolus injection (body weight). Also noted: species or system OF-1 mice. Here is the method:
FIG. 1. Effect of PhAc-peptide-Dox conjugates on the body weight of OF-1 normal mice (n=4). […] Results represent the mean body weight evolution.
The in vivo toxicity was evaluated by monitoring body weight.

The test system of data set [6] is LS-174T tumor cell secreted peptidases. As to the kind of experiment: Reactivation assay in LS174T tumor cell conditioned medium. The class given is biochemical, human. As to conditions: 5 h at 37° C. Here is the method:
Sub-confluent cultures of LS-174T tumor cells were washed twice with a saline phosphate buffer solution, and fresh culture medium (DMEM-F12 without phenol red) containing 0.02% bovine serum albumin is added (100 μl/cm^2). After 24 hours incubation, the conditioned medium is collected, centrifuged for 10 minutes at 300 g, buffered with 1 M Tris-HCl, pH 7.4 (1 volume of buffer+19 volumes of medium) and concentrated 20 times by […] (cutoff threshold of 10 kDa).
Drug compounds (50 μM) were incubated for 0, 1, 3 or 5 hours at 37° C. in the presence of freshly prepared LS174T tumor cell conditioned medium. Fifty μL of sample were collected at each time point and processed as described above for human plasma.

Setting [7] is: 13.8-82.8 μmol/kg, 10 iv injections.

Molecules are shown by their SMILES. Read-outs that look alike come from different tables or passages of the source.

The text below walks through data of US10076576B2, “Minimally toxic prodrugs” (priority 2012, dated 2018).

Consider `COc1cccc2c1C(=O)c1c(O)c3c(c(O)c1C2=O)C[C@@](O)(C(=O)CO)C[C@@H]3O[C@H]1C[C@H](N)[C@H](O)[C@H](C)O1` [Doxorubicin, reference compound], for which, in data set [1], the “Heart AUC of Dox” value worked out at 5863 pmol · h/mg protein.

With `COc1cccc2c1C(=O)c1c(O)c3c(c(O)c1C2=O)CC(O)(C(=O)CO)CC3OC1CC(NC(=O)C2CCCN2C(=O)CNC(=O)C(CC(C)C)NC(=O)C(C)NC(=O)CP(=O)(O)O)C(O)C(C)O1` (stereo not shown) [PhAc-ALGP-Dox, PhAc-ALGP-doxorubicin], the viability (usually a read-out of living cells in per cent, often relative to untreated cells) at 48 h, 20 µg/mL in data set [2] is 37%. Further, in data set [3] (setting [7]), the “body weight loss (in words)” value is on record as “No body weight loss” and the “pathologic microscopic findings in the heart (in words)” value is listed as “did not induce any pathologic microscopic findings in the heart at any dose levels”. Moreover, in data set [3] (mouse, in vivo, iv), the “Atrophy; myofiber” value turned out to be 0, the “Atrophy; myofiber Grade 1” value is 0, the “Atrophy; myofiber Grade 2” value was 0 and the “Degeneration/necrosis; myocardium” value amounted to 0. Also, in data set [3] (mouse, in vivo, iv), the “Degeneration/necrosis; myocardium Grade 1” value was 0, the “Enlarg. Nuclei; myofib.” value is 0, the “Enlarg. Nuclei; myofib. Grade 1” value turned out to be 0 and the “Infiltration; mix. Cells” value came to 0. In data set [3] (mouse, in vivo, iv), the “Infiltration; mix. Cells Grade 1” value is given as 0, the “Thrombus; atrium” value is reported as 0, the “Thrombus; atrium Grade 1” value is listed as 0 and the “Vacuolation; myofib.” value was found to be 0. Further, in data set [3] (mouse, in vivo, iv), the “Vacuolation; myofib. Grade 1” value turned out to be 0 and the “Vacuolation; myofib. Grade 2” value came to 0. In addition, in data set [4], the “% metabolites released: Dox” value came to 2%, the “% metabolites released: GP-dox” value was determined as 0%, the “% metabolites released: P-Dox” value worked out at 0% and the total % metabolites was 2%. Also, the “maximum body weight loss” value in data set [5] (240 μmol/kg single iv, day 28) turned out to be 15%. In addition, in data set [5] (320 μmol/kg single iv), the “body weight loss (in words)” value is listed as “significant body weight loss” and the mortality entry is given as “one mouse was found dead at day 12”. Moreover, in data set [5] (240 and 320 μmol/kg single iv), the “tolerability (in words)” value was “well tolerated”. The MTD (commonly the largest dose that counted as tolerated) in data set [5] (OF-1, mouse, in vivo, single iv bolus injection, read-out: maximum tolerated dose (MTD)) was in the range of 240 to 320 µmol/kg. For the same compound, the “times less toxic than Dox” value in data set [5] (after one intravenous injection) is “at least 6 times”. For the same compound, in data set [6] (50 μM compound), the “% Metabolites released after 5 h (LS174T CM20xcc)” value is 81 ± 31%. Also, the “% Dox detected after 5 h (LS174T conditioned medium)” value in data set [6] (metabolite Dox) amounted to 24%. Also, the “% GP-Dox detected after 5 h (LS174T conditioned medium)” value in data set [6] (metabolite GP-Dox) came to 56%.
